Data reported in article PMC7195466, “A common allosteric mechanism regulates homeostatic inactivation of auxin and gibberellin” (Nature Communications, 2020).

Target: the molecule itself
Test: cell-based or functional assay

B1: Oryza sativa gibberellin 2-oxidase 3 (OsGA2ox3), wild type (enzyme, rice (Oryza sativa), UniProt Q8S0S6 1-327, looked up)
chain: MVVLAGPPAVDHIPLLRSPDPGDVFSGVPVVDLGSPGAARAVVDACERYGFFKVVNHGVATDTMDKAESEAVRFFSQTQPDKDRSGPAYPFGYGSKRIGFNGDMGWLEYLLLALDDASLADACTVPSCAVFRAALNEYISGVRKVAVRVMEAMSEGLGIAQADALSALVTAEGSDQVFRVNHYPPCRALQGLGCSVTGFGEHTDPQLVSVLRSNGTSGLQIALRDGQWVSVPSDRDSFFVNVGDSLQVLTNGRFKSVKHRVVANSLKSRVSFIYFGGPPLAQRIAPLPQLLGEGEQSLYKEFTWDEYKKAAYKSRLGDNRLAQFEKK
  Vmax of the tetramer and dimer against the monomers (forms separated by gel filtration): > 3 fold
